Data as given in US20200199647A1, “ASSAY FOR SCREENING MODULATORS OF HOLOPHOSPHATASE ACTIVITY” (UNITED KINGDOM RESEARCH AND INNOVATION, priority 2017, published 2020).
Each block holds one substance with its values, some of them ahead of it.

Experiments:
[1] = target: P-eIF2α (human eIF2α amino acids 1-185 solubility mutant, C-terminal His6-tag, phosphorylated on Ser51) (human) (UniProt P05198); assay: thermophoresis
Target sequence in this assay (P05198 other isoform, or with tags, fused parts or gaps mutant): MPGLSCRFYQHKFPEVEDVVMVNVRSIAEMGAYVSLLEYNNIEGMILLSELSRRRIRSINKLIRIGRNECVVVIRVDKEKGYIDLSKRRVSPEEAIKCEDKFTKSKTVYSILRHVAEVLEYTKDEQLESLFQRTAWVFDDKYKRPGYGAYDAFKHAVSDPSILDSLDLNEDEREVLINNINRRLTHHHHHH

[2] = target: P-eIF2α (human eIF2α amino acids 1-185 solubility mutant, C-terminal His6-tag, phosphorylated on Ser51) (human) (UniProt P05198); assay: thermophoresis (MST), labelled P-eIF2α with 10 µM R15B, unlabelled PP1c^D95A titrated
[3] = target: P-eIF2α (human eIF2α amino acids 1-185 solubility mutant, C-terminal His6-tag, phosphorylated on Ser51) (human) (UniProt P05198); assay: thermophoresis (MST), labelled P-eIF2α, unlabelled PP1c^D95A titrated
[4] = target: P-eIF2α (human eIF2α amino acids 1-185 solubility mutant, C-terminal His6-tag, phosphorylated on Ser51) (human) (UniProt P05198); assay: thermophoresis (MST), labelled P-eIF2α with 10 µM R15A, unlabelled PP1c^D95A titrated
[5] = target: PP1c (human PP1cα amino acids 7-330, N-terminal Thio6/His6 tag) (human) (UniProt P62136); assay: thermophoresis (MST), labelled PP1c, unlabelled R15A titrated
[6] = target: PP1c (human PP1cα amino acids 7-330, N-terminal Thio6/His6 tag) (human) (UniProt P62136); assay: thermophoresis

PP1c (human PP1cα amino acids 7-330, N-terminal Thio6/His6 tag) (human), sequence (P62136 other isoform, or with tags, fused parts or gaps): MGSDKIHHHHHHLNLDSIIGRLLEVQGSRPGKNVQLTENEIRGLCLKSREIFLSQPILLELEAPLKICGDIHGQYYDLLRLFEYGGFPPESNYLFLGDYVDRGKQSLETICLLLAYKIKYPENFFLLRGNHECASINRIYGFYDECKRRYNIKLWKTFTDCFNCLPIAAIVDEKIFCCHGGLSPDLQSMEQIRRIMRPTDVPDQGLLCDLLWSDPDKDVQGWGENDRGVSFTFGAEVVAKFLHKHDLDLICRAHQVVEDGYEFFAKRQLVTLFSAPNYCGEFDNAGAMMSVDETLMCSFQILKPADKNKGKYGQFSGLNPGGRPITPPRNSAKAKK

Substance: PP1c^D95A (human PP1cα amino acids 7-330, D95A, N-terminal Thio6/His6 tag) (from UniProt P62136 7-330) (enzyme)
- Kd [3]: 650 nM

Substance: R15B (human PPP1R15B amino acids 340-698, N-terminal MBP-tag, C-terminal His6-tag) (from UniProt Q5SWA1 340-698)
- Kd [1]: 550 nM

Substance: R15A-PP1c^D95A holophosphatase complex (from UniProt O75807 325-636; P62136 7-330)
- fold higher affinity than the isolated PP1c^D95A [4]: 5.4 times

Substance: R15A (human PPP1R15A amino acids 325-636, N-terminal MBP-tag, C-terminal His6-tag) (from UniProt O75807 325-636)
- Kd [5]: 60 nM
- Kd [1]: 340 nM

Substance: R15A^C (human PPP1R15A amino acids 513-636, N-terminal MBP-tag, C-terminal His6-tag) (from UniProt O75807 513-636)
- Kd [6]: 190 nM

Other lines, results leading:

- Kd [1]: 440 nM
Substance: R15A^N (human PPP1R15A amino acids 325-512, N-terminal MBP-tag, C-terminal His6-tag) (from UniProt O75807 325-512)

- fold higher affinity than the isolated PP1c^D95A [2]: 3 times
Substance: R15B-PP1c^D95A holophosphatase complex (from UniProt P0AEX9 27-392; Q5SWA1 340-698; P62136 7-330)

- Kd [1]: 530 nM
Substance: R15B^N (human PPP1R15B amino acids 340-635, N-terminal MBP-tag, C-terminal His6-tag) (from UniProt Q5SWA1 340-635)
